Results on six molecules are retold here after patent US20220177587A1, “METHODS AND USES OF VARIANT CD80 FUSION PROTEINS AND RELATED CONSTRUCTS” (Alpine Immune Sciences, Inc., priority 2018, published 2022).

First the molecules themselves.
B1: M47V/N48K/K89N (protein)
chain: VIHVTKEVKEVATLSCGHNVSVEELAQTRIYWQKEKKMVLTMMSGDVKIWPEYKNRTIFDITNNLSIVILALRPSDEGTYECVVLKYENDAFKREHLAEVTLSVKAD
B2: E35D/D46V/M47V/V68M/L85Q (protein)
chain: B1 chain with E35D, D46V, K48N, V68M, L85Q, N89K
B3: E35D/M47V/N48K/V68M/L85Q (protein)
chain: B1 chain with E35D, V68M, L85Q, N89K
B4: E35D/M47V/V68M/L85Q/K89N (protein)
chain: B1 chain with E35D, K48N, V68M, L85Q
B5: E35D/M47V/N48K/K89N (protein)
chain: B1 chain with E35D
B6: E35D/D46V/M47V/N48K/V68M (protein)
chain: B1 chain with E35D, D46V, V68M, N89K

Substitutions are numbered along the chain they refer to. Numbers in names are those of the source.

In one assay the target is huPD-L1 (Homo sapiens, UniProt Q9NZQ7). Nature of the assay: Flow binding to CHO cells stably expressing PD-L1. Further details: huCTLA4 and huPD-L1, full-length mammalian surface expression constructs were generated; expressed in transfected cells; host or cells: CHO cells, lentiviral transduction, sorted to >98% purity. Conditions: Table E19; CHO cells stably expressing PD-L1; 33.3 nM. The gist of the method: (§1)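 Flow cytometry on transfected CHO cells or CD28+ Jurkat/IL2 reporter cells, blocked 20 min in PBS/1% BSA/0.1% azide. Fusion protein 45 min on ice; PE anti-human Fc 1:150, 30 min on ice; fixed in 2% formaldehyde. Read-out PE MFI, EC50 calculated.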
huPD-L1, sequence (Q9NZQ7 19-290): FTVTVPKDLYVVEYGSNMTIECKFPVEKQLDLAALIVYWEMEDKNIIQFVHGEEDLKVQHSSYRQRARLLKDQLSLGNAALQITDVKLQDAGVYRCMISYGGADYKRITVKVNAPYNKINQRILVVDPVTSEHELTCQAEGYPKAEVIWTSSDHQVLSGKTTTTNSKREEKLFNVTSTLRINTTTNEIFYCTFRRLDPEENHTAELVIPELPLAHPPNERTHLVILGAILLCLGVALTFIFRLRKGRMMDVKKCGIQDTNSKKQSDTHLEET
Regarding B1, the “PD-L1 MFI at 33.3 nM” value is recorded as 2366.
B2: the “PD-L1 MFI at 33.3 nM” value came to 26290.
B3: the “PD-L1 MFI at 33.3 nM” value is recorded as 10479.
With B4, the “PD-L1 MFI at 33.3 nM” value is given as 12085.
B5: the “PD-L1 MFI at 33.3 nM” value stood at 6669.
Same read-out and setting: next, B6: 25940.

Staying with this assay, now noted: Table E19; MFI at 33.3 nM relative to WT CD80 ECD-Fc (Abcam).
Turning to B1, the “PD-L1 Fold change to WT CD80” value is given as 18.5 fold.
Consider B2, for which the “PD-L1 Fold change to WT CD80” value is listed as 205.4 fold.
B3: the “PD-L1 Fold change to WT CD80” value is given as 81.9 fold.
B4: the “PD-L1 Fold change to WT CD80” value was 94.4 fold.
With B5, the “PD-L1 Fold change to WT CD80” value is 52.1 fold.
Take B6: the “PD-L1 Fold change to WT CD80” value was 202.7 fold.

The assay is the same for the next values; noted with them: Table E19; ratio of MFI at 33.3 nM.
Consider B1, for which the “Ratio of PDL1:CD28” value worked out at 6.5.
B2: the “Ratio of PDL1:CD28” value was 79.4.
Same read-out and setting: in the case of B3 it was 88.8; in that of B4, 49.1.
As to B5, the “Ratio of PDL1:CD28” value came out at 9.5.
Regarding B6, the “Ratio of PDL1:CD28” value stood at 23.9.

The next assay has as its target T1, CD28 (Homo sapiens, UniProt P10747). Nature of the assay: Jurkat/IL2 + CHO/OKT3 +/- PD-L1 reporter assay: PD-L1-dependent CD28 costimulation. Format: cell-based. Set-up: host or cells: Jurkat cells expressing an IL-2-luciferase reporter. Conditions: Table E21; Jurkat/IL2 + CHO/OKT3/PD-L1; 5.0 nM. Put shortly:
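Jurkat reporter cells (100,000/well) preincubated 15 min at room temperature with test protein, then cocultured 5 h at 37 °C with CHO aAPCs bearing anti-CD3 scFv (OKT3) with or without PD-L1. Luciferase luminescence (RLU) read after lysis-substrate addition.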
(In a reporter assay the amount or activity of a reporter protein is the signal.)
As for B1, the “Fold Increase over WT CD80-IgV-Fe” value was determined as 4.1 fold.
Consider B2, for which the “Fold Increase over WT CD80-IgV-Fe” value was found to be 8.5 fold.
Turning to B3, the “Fold Increase over WT CD80-IgV-Fe” value came to 7.9 fold.
For the molecule B4, the “Fold Increase over WT CD80-IgV-Fe” value worked out at 7.4 fold.
On the same count and under the same terms, next, B5: 7.1 fold.
Regarding B6, the “Fold Increase over WT CD80-IgV-Fe” value was 6.1 fold.

The assay is the same for the next values; noted with them: Table E21; Jurkat/IL2 + CHO/OKT3/PD-L1; CD80 Conc 5.0 nM.
For B1, the “Relative Luciferase Units (RLU), CD80 Conc 5.0 nM” value is recorded as 472 RLU.
Still for that read-out and setting: in the case of B2 it was 980 RLU; in that of B3, 907 RLU; in that of B4, 854 RLU.
Turning to B5, the “Relative Luciferase Units (RLU), CD80 Conc 5.0 nM” value is 814 RLU.
Still for that read-out and setting: in the case of B6 it was 696 RLU.

For a further assay, the target named is T1, CD28. Nature of the assay: Flow binding to Jurkat/IL2 reporter cells (CD28). Further details: host or cells: Jurkat cells expressing an IL-2-luciferase reporter. The following applies: Table E19; Jurkats (CD28); 33.3 nM. The gist of the method:
as §1
For the molecule B1, the “CD28 MFI at 33.3 nM” value came to 366.
B2: the “CD28 MFI at 33.3 nM” value was found to be 331.
For B3, the “CD28 MFI at 33.3 nM” value is reported as 118.
The same measure, in the same setting: next, B4: 246; B5: 701; B6: 1085.

Still in this assay, the particulars now being: Table E19; MFI at 33.3 nM relative to WT CD80 ECD-Fc (Abcam).
On to B1, for which the “CD28 Fold change to WT CD80” value stood at 0.5 fold.
As for B2, the “CD28 Fold change to WT CD80” value was 0.5 fold.
As to B3, the “CD28 Fold change to WT CD80” value stood at 0.2 fold.
As to B4, the “CD28 Fold change to WT CD80” value stood at 0.3 fold.
Consider B5, for which the “CD28 Fold change to WT CD80” value came to 1.0 fold.
As to B6, the “CD28 Fold change to WT CD80” value is recorded as 1.5 fold.

In another assay the target is huCTLA4 (Homo sapiens, UniProt P16410). Nature of the assay: Flow binding to CHO cells stably expressing CTLA4. Further details: huCTLA4 and huPD-L1, full-length mammalian surface expression constructs were generated; expressed in transfected cells; host or cells: CHO cells, lentiviral transduction, sorted to >98% purity. Conditions: Table E19; CHO cells stably expressing CTLA4; 33.3 nM. The gist of the method: as §1
huCTLA4, sequence (P16410 36-223): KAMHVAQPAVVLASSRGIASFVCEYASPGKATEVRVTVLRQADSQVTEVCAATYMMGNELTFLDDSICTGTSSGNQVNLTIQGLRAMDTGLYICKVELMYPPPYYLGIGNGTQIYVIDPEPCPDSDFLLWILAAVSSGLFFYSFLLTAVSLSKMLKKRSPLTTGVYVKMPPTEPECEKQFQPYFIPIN
Consider B1, for which the “CTLA4 MFI at 33.3 nM” value came to 42071.
In the case of B2, the “CTLA4 MFI at 33.3 nM” value was 36463.
Still for that read-out and setting: in the case of B3 it was 26104; in that of B4, 30276.
As to B5, the “CTLA4 MFI at 33.3 nM” value was 43756.
Take B6: the “CTLA4 MFI at 33.3 nM” value amounted to 23880.

The assay is the same for the next values; noted with them: Table E19; MFI at 33.3 nM relative to WT CD80 ECD-Fc (Abcam).
B1: the “CTLA4 Fold change to WT CD80” value was 1.0 fold.
As for B2, the “CTLA4 Fold change to WT CD80” value was 0.9 fold.
Consider B3, for which the “CTLA4 Fold change to WT CD80” value worked out at 0.6 fold.
Same read-out and setting: next, B4: 0.7 fold; B5: 1.1 fold.
Regarding B6, the “CTLA4 Fold change to WT CD80” value is given as 0.6 fold.
